Results on five sequences are retold here after the supplement of paper PMC5998384.

The subject of data set [1] is HeLa Kyoto. Put plainly: solubility change mitosis vs G1/S (difference of NP-40 vs SDS log2 ratios) (log2 ratio difference); higher = more soluble in mitosis.
Data set [2] has as its system HeLa Kyoto. Put plainly: thermal stability score vs G1/S (z-score of summed log2 fold changes over temperatures); higher = more thermally stable than in G1/S.
Data set [3] deals with HeLa Kyoto. In words: solubility in G1/S (NP-40 vs SDS abundance) (log2 ratio); higher = more soluble. To be noted: cell cycle stage: G1/S.
Data set [4] concerns HeLa Kyoto. In words: melting temperature (median over replicates), in situ; higher = more thermally stable.
Where [5] appears, read: cell cycle stage: early G1 (4.5 h after nocodazole release).
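For melting temperature (median over replicates), in situ in this document: HeLa Kyoto cells synchronized by double thymidine or nocodazole block, proteins quantified by TMT10plex mass spectrometry, three independent biological replicates.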
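For solubility change mitosis vs G1/S (difference of NP-40 vs SDS log2 ratios) in this document: synchronized HeLa Kyoto cells (double thymidine block for G1/S, nocodazole release for mitosis), protein amounts in NP-40 versus SDS lysates quantified by mass spectrometry, three biological replicates.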
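For solubility in G1/S (NP-40 vs SDS abundance) in this document: HeLa Kyoto cells arrested at G1/S by double thymidine block, proteins quantified by TMT10plex mass spectrometry in mild NP-40 versus SDS extracts, three biological replicates.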
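For thermal stability score vs G1/S (z-score of summed log2 fold changes over temperatures) in this document: synchronized HeLa Kyoto cells, proteins quantified by TMT10plex mass spectrometry, three biological replicates, mitosis taken 0.5 h after nocodazole release, G1/S directly after double thymidine block.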

With “MVADPPRDSKGLAAAEPTANGGLALASIEDQGAAAGGYCGSRDQVRRCLRANLLVLLTVVAVVAGVALGLGVSGAGGALALGPERLSAFVFPGELLLRLLRMIILPLVVCSLIGGAASLDPGALGRLGAWALLFFLVTTLLASALGVGLALALQPGAASAAINASVGAAGSAENAPSKEVLDSFLDLARNIFPSNLVSAAFRSYSTTYEERNITGTRVKVPVGQEVEGMNILGLVVFAIVFGVALRKLGPEGELLIRFFNSFNEATMVLVSWIMWYAPVGIMFLVAGKIVEMEDVGLLFARLGKYILCCLLGHAIHGLLVLPLIYFLFTRKNPYRFLWGIVTPLATAFGTSSSSATLPLMMKCVEENNGVAKHISRFILPIGATVNMDGAALFQCVAAVFIAQLSQQSLDFVKIITILVTATASSVGAAGIPAGGVLTLAIILEAVNLPVDHISLILAVDWLVDRSCTVLNVEGDALGAGLLQNYVDRTESRSTEPELIQVKSELPLDPLPVPTEEGNPLLKHYRGPAGDATVASEKESVM [SLC1A5]”, the “solubility change mitosis (log2)” value in the data set on HeLa Kyoto [1] is -0.123. Further, the values for the thermal stability score in the data set with HeLa Kyoto [2] (setting [5]) and with HeLa Kyoto [2] (cell cycle stage: mitosis) were -1.47 and -1.94, respectively. Also, in the data set on HeLa Kyoto [3], the “solubility in G1/S (log2)” value was found to be 0.196. In the data set on HeLa Kyoto [4] (cell cycle stage: mitosis), this sequence gave a melting temperature of 65.7 °C.

Regarding “MVAGSDAGRALGVLSVVCLLHCFGFISCFSQQIYGVVYGNVTFHVPSNVPLKEVLWKKQKDKVAELENSEFRAFSSFKNRVYLDTVSGSLTIYNLTSSDEDEYEMESPNITDTMKFFLYVLESLPSPTLTCALTNGSIEVQCMIPEHYNSHRGLIMYSWDCPMEQCKRNSTSIYFKMENDLPQKIQCTLSNPLFNTTSSIILTTCIPSSGHSRHRYALIPIPLAVITTCIVLYMNGILKCDRKPDRTNSN [CD58]”, the “solubility change mitosis (log2)” value in the data set on HeLa Kyoto [1] came out at 0.319. Further, the thermal stability score in the data set with HeLa Kyoto [2] (setting [5]) is -0.387; with HeLa Kyoto [2] (cell cycle stage: mitosis) it was -1.23. The “solubility in G1/S (log2)” value with HeLa Kyoto [3] was -0.813. In the data set with HeLa Kyoto [4] (cell cycle stage: G1/S), this sequence displayed a melting temperature of 55.3 °C.

In the case of “MVDLTQVMDDEVFMAFASYATIILSKMMLMSTATAFYRLTRKVFANPEDCVAFGKGENAKKYLRTDDRVERVRRAHLNDLENIIPFLGIGLLYSLSGPDPSTAILHFRLFVGARIYHTIAYLTPLPQPNRALSFFVGYGVTLSMAYRLLKSKLYL [MGST1]”, the “solubility change mitosis (log2)” value with HeLa Kyoto [1] is -0.17. The results for the thermal stability score with HeLa Kyoto [2] (setting [5]) and in the data set with HeLa Kyoto [2] (cell cycle stage: mitosis) were 0.0202 and -1.77, respectively. In the data set on HeLa Kyoto [3], the “solubility in G1/S (log2)” value is -0.321. The melting temperature in the data set with HeLa Kyoto [4] (cell cycle stage: G1/S) turned out to be 56.8 °C; in the data set on HeLa Kyoto [4] (cell cycle stage: mitosis), 58 °C.

As for “MVEADRPGKLFIGGLNTETNEKALETVFGKYGRIVEVLLIKDRETNKSRGFAFVTFESPADAKDAARDMNGKSLDGKAIKVEQATKPSFERGRHGPPPPPRSRGPPRGFGAGRGGSGGTRGPPSRGGHMDDGGYSMNFNMSSSRGPLPVKRGPPPRSGGPSPKRSAPSGLVRSSSGMGGRAPLSRGRDSYGGPPRREPLPSRRDVYLSPRDDGYSTKDSYSSRDYPSSRDTRDYAPPPRDYTYRDYGHSSSRDDYPSRGYGDRDGYGRDRDYSDHPSGGSYRDSYESYGNSRSAPLTRGPPPSYGGSSRYDDYSSSRDGYGGSRDSYSSSRSDLYSSCDRVGRQERGLPPSVERGYPSSRDSYSSSSRGAPRGAGPGGSRSDRGGGRSRY [RBMXL1]”, in the data set on HeLa Kyoto [1], the “solubility change mitosis (log2)” value amounted to 0.637. Further, the thermal stability score was -0.08 in the data set on HeLa Kyoto [2] (setting [5]) and 0.0725 with HeLa Kyoto [2] (cell cycle stage: mitosis). The “solubility in G1/S (log2)” value in the data set on HeLa Kyoto [3] was -0.598. The melting temperature amounted to 46.5 °C in the data set on HeLa Kyoto [4] (cell cycle stage: G1/S) and 51 °C in the data set with HeLa Kyoto [4] (cell cycle stage: mitosis).

As to “MVEPGQDLLLAALSESGISPNDLFDIDGGDAGLATPMPTPSVQQSVPLSALELGLETEAAVPVKQEPETVPTPALLNVRQQPPSTTTFVLNQINHLPPLGSTIVMTKTPPVTTNRQTITLTKFIQTTASTRPSVSAPTVRNAMTSAPSKDQVQLKDLLKNNSLNELMKLKPPANIAQPVATAATDVSNGTVKKESSNKEGARMWINDMKMRSFSPTMKVPVVKEDDEPEEEDEEEMGHAETYAEYMPIKLKIGLRHPDAVVETSSLSSVTPPDVWYKTSISEETIDNGWLSALQLEAITYAAQQHETFLPNGDRAGFLIGDGAGVGKGRTIAGIIYENYLLSRKRALWFSVSNDLKYDAERDLRDIGAKNILVHSLNKFKYGKISSKHNGSVKKGVIFATYSSLIGESQSGGKYKTRLKQLLHWCGDDFDGVIVFDECHKAKNLCPVGSSKPTKTGLAVLELQNKLPKARVVYASATGASEPRNMAYMNRLGIWGEGTPFREFSDFIQAVERRGVGAMEIVAMDMKLRGMYIARQLSFTGVTFKIEEVLLSQSYVKMYNKAVKLWVIARERFQQAADLIDAEQRMKKSMWGQFWSAHQRFFKYLCIASKVKRVVQLAREEIKNGKCVVIGLQSTGEARTLEALEEGGGELNDFVSTAKGVLQSLIEKHFPAPDRKKLYSLLGIDLTAPSNNSSPRDSPCKENKIKKRKGEEITREAKKARKVGGLTGSSSDDSGSESDASDNEESDYESSKNMSSGDDDDFNPFLDESNEDDENDPWLIRKDHKKNKEKKKKKSIDPDSIQSALLASGLGSKRPSFSSTPVISPAPNSTPANSNTNSNSSLITSQDAVERAQQMKKDLLDKLEKLAEDLPPNTLDELIDELGGPENVAEMTGRKGRVVSNDDGSISYESRSELDVPVEILNITEKQRFMDGDKNIAIISEAASSGISLQADRRAKNQRRRVHMTLELPWSADRAIQQFGRTHRSNQVTAPEYVFLISELAGEQRFASIVAKRLESLGALTHGDRRATESRDLSRFNFDNKYGRNALEIVMKSIVNLDSPMVSPPPDYPGEFFKDVRQGLIGVGLINVEDRSGILTLDKDYNNIGKFLNRILGMEVHQQNALFQYFADTLTAVVQNAKKNGRYDMGILDLGSGDEKVRKSDVKKFLTPGYSTSGHVELYTISVERGMSWEEATKIWAELTGPDDGFYLSLQIRNNKKTAILVKEVNPKKKLFLVYRPNTGKQLKLEIYADLKKKYKKVVSDDALMHWLDQYNSSADTCTHAYWRGNCKKASLGLVCEIGLRCRTYYVLCGSVLSVWTKVEGVLASVSGTNVKMQIVRLRTEDGQRIVGLIIPANCVSPLVNLLSTSDQSQQLAVQQKQLWQQHHPQSITNLSNA [SBNO1]”, the “solubility change mitosis (log2)” value in the data set with HeLa Kyoto [1] was -0.158. Moreover, the thermal stability score was determined as 1.19 in the data set with HeLa Kyoto [2] (setting [5]) and 2.1 in the data set with HeLa Kyoto [2] (cell cycle stage: mitosis). Further, in the data set on HeLa Kyoto [3], the “solubility in G1/S (log2)” value came out at 0.0971. Further, the melting temperature amounted to 50.9 °C in the data set on HeLa Kyoto [4] (cell cycle stage: G1/S) and 51.4 °C with HeLa Kyoto [4] (cell cycle stage: mitosis).
